US20230406885A1, “CYCLIC PEPTIDES FOR TRAPPING INTERLEUKIN-1 BETA” (MERCK SHARP & DOHME LLC, priority 2022, published 2023)
*1 amine or outer side, *2 acyl side, *3 side chain or, on linkers, in order; H or OH if unused. [ ]: non-standard residue; d: D form. TyrEtNAc = L-tyrosine O-ethyl acetamide, (S)-3-(4-(2-acetamidoethoxy)phenyl)-2-aminopropanoic acid, CC(=O)NCCOc1ccc(C[C@H](N[*:1])C(=O)[*:2])cc1; 3AzaPhe4AcPip = (S)-3-(6-(4-acetylpiperazin-1-yl)pyridin-3-yl)-2-aminopropanoic acid, CC(=O)N1CCN(c2ccc(C[C@H](N[*:1])C(=O)[*:2])cn2)CC1; Pro(trans-4-NH2) = O=C([C@@H]1C[C@@H](N[*:3])CN1[*:1])[*:2]; Trp(βS-Me,4-F) = C[C@@H](c1c[nH]c2cccc(F)c12)[C@H](N)C(=O)O; Bip(4'-COOH) = N[C@@H](Cc1ccc(-c2ccc(C(=O)O)cc2)cc1)C(=O)O; hQ = L-homoglutamine, NC(=O)CCC[C@H](N[*:1])C(=O)[*:2]; 1Nal(3S-Me) = C[C@@H](c1cccc2ccccc12)[C@H](N)C(=O)O; Phe(4-COOH) = N[C@@H](Cc1ccc(C(=O)O)cc1)C(=O)O; h3Pal(5-CN) = N#Cc1cncc(CC[C@H](N)C(=O)O)c1; hTyr = N[C@@H](CCc1ccc(O)cc1)C(=O)O; hCha = N[C@@H](CCC1CCCCC1)C(=O)O; tBuAla = CC(C)(C)C[C@H](N)C(=O)O; dNle = CCCC[C@@H](N)C(=O)O; dNva = CCC[C@@H](N)C(=O)O; Orn = NCCC[C@H](N)C(=O)O; dNMeA = CN[C@H](C)C(=O)O; Dab = NCC[C@H](N)C(=O)O; Dap = NC[C@H](N)C(=O)O

B1: SEQ ID NO: 177 (Example No. 177) (peptide)
peptide: cyclo([3AzaPhe4AcPip]W[Phe(4-COOH)]G[Pro(trans-4-NH2)][1Nal(3S-Me)]D[dNMeA]G[Bip(4'-COOH)]KL[dA][hCha])
SMILES: CC(=O)N1CCN(c2ccc(C[C@@H]3NC(=O)[C@H](CCC4CCCCC4)NC(=O)[C@@H](C)NC(=O)[C@H](CC(C)C)NC(=O)[C@H](CCCCN)NC(=O)[C@H](Cc4ccc(-c5ccc(C(=O)O)cc5)cc4)NC(=O)CNC(=O)[C@@H](C)N(C)C(=O)[C@H](CC(=O)O)NC(=O)[C@H]([C@@H](C)c4cccc5ccccc45)NC(=O)[C@@H]4C[C@@H](N)CN4C(=O)CNC(=O)[C@H](Cc4ccc(C(=O)O)cc4)NC(=O)[C@H](Cc4c[nH]c5ccccc45)NC3=O)cn2)CC1
B2: SEQ ID NO: 180 (Example No. 180) (peptide)
peptide: cyclo([3AzaPhe4AcPip]W[Phe(4-COOH)]G[Pro(trans-4-NH2)][1Nal(3S-Me)]D[dNMeA]G[Bip(4'-COOH)]KL[dNva][h3Pal(5-CN)])
SMILES: CCC[C@H]1NC(=O)[C@H](CC(C)C)NC(=O)[C@H](CCCCN)NC(=O)[C@H](Cc2ccc(-c3ccc(C(=O)O)cc3)cc2)NC(=O)CNC(=O)[C@@H](C)N(C)C(=O)[C@H](CC(=O)O)NC(=O)[C@H]([C@@H](C)c2cccc3ccccc23)NC(=O)[C@@H]2C[C@@H](N)CN2C(=O)CNC(=O)[C@H](Cc2ccc(C(=O)O)cc2)NC(=O)[C@H](Cc2c[nH]c3ccccc23)NC(=O)[C@H](Cc2ccc(N3CCN(C(C)=O)CC3)nc2)NC(=O)[C@H](CCc2cncc(C#N)c2)NC1=O
B3: SEQ ID NO: 181 (Example No. 181) (peptide)
peptide: cyclo([3AzaPhe4AcPip]W[Phe(4-COOH)]G[Pro(trans-4-NH2)][1Nal(3S-Me)]D[dNMeA]G[Bip(4'-COOH)]K[tBuAla][dA][h3Pal(5-CN)])
SMILES: CC(=O)N1CCN(c2ccc(C[C@@H]3NC(=O)[C@H](CCc4cncc(C#N)c4)NC(=O)[C@@H](C)NC(=O)[C@H](CC(C)(C)C)NC(=O)[C@H](CCCCN)NC(=O)[C@H](Cc4ccc(-c5ccc(C(=O)O)cc5)cc4)NC(=O)CNC(=O)[C@@H](C)N(C)C(=O)[C@H](CC(=O)O)NC(=O)[C@H]([C@@H](C)c4cccc5ccccc45)NC(=O)[C@@H]4C[C@@H](N)CN4C(=O)CNC(=O)[C@H](Cc4ccc(C(=O)O)cc4)NC(=O)[C@H](Cc4c[nH]c5ccccc45)NC3=O)cn2)CC1
B4: SEQ ID NO: 182 (Example No. 182) (peptide)
peptide: cyclo([3AzaPhe4AcPip]W[Phe(4-COOH)]G[Pro(trans-4-NH2)][1Nal(3S-Me)]D[dNMeA]G[Bip(4'-COOH)][Orn]L[dA][hCha])
SMILES: CC(=O)N1CCN(c2ccc(C[C@@H]3NC(=O)[C@H](CCC4CCCCC4)NC(=O)[C@@H](C)NC(=O)[C@H](CC(C)C)NC(=O)[C@H](CCCN)NC(=O)[C@H](Cc4ccc(-c5ccc(C(=O)O)cc5)cc4)NC(=O)CNC(=O)[C@@H](C)N(C)C(=O)[C@H](CC(=O)O)NC(=O)[C@H]([C@@H](C)c4cccc5ccccc45)NC(=O)[C@@H]4C[C@@H](N)CN4C(=O)CNC(=O)[C@H](Cc4ccc(C(=O)O)cc4)NC(=O)[C@H](Cc4c[nH]c5ccccc45)NC3=O)cn2)CC1
B5: SEQ ID NO: 172 (Example No. 172) (peptide)
peptide: cyclo([TyrEtNAc]W[Phe(4-COOH)]G[Pro(trans-4-NH2)][Trp(βS-Me,4-F)]D[dNMeA]G[Bip(4'-COOH)]WS[dA][hTyr])
SMILES: CC(=O)NCCOc1ccc(C[C@@H]2NC(=O)[C@H](CCc3ccc(O)cc3)NC(=O)[C@@H](C)NC(=O)[C@H](CO)NC(=O)[C@H](Cc3c[nH]c4ccccc34)NC(=O)[C@H](Cc3ccc(-c4ccc(C(=O)O)cc4)cc3)NC(=O)CNC(=O)[C@@H](C)N(C)C(=O)[C@H](CC(=O)O)NC(=O)[C@H]([C@@H](C)c3c[nH]c4cccc(F)c34)NC(=O)[C@@H]3C[C@@H](N)CN3C(=O)CNC(=O)[C@H](Cc3ccc(C(=O)O)cc3)NC(=O)[C@H](Cc3c[nH]c4ccccc34)NC2=O)cc1
B6: SEQ ID NO: 179 (Example No. 179) (peptide)
peptide: cyclo([3AzaPhe4AcPip]W[Phe(4-COOH)]G[Pro(trans-4-NH2)][1Nal(3S-Me)]D[dNMeA]G[Bip(4'-COOH)]KL[dNle][h3Pal(5-CN)])
SMILES: CCCC[C@H]1NC(=O)[C@H](CC(C)C)NC(=O)[C@H](CCCCN)NC(=O)[C@H](Cc2ccc(-c3ccc(C(=O)O)cc3)cc2)NC(=O)CNC(=O)[C@@H](C)N(C)C(=O)[C@H](CC(=O)O)NC(=O)[C@H]([C@@H](C)c2cccc3ccccc23)NC(=O)[C@@H]2C[C@@H](N)CN2C(=O)CNC(=O)[C@H](Cc2ccc(C(=O)O)cc2)NC(=O)[C@H](Cc2c[nH]c3ccccc23)NC(=O)[C@H](Cc2ccc(N3CCN(C(C)=O)CC3)nc2)NC(=O)[C@H](CCc2cncc(C#N)c2)NC1=O
B7: SEQ ID NO: 175 (Example No. 175) (peptide)
peptide: cyclo([3AzaPhe4AcPip]W[Phe(4-COOH)]G[Pro(trans-4-NH2)][1Nal(3S-Me)]D[dNMeA]G[Bip(4'-COOH)][Dap]L[dA][hCha])
SMILES: CC(=O)N1CCN(c2ccc(C[C@@H]3NC(=O)[C@H](CCC4CCCCC4)NC(=O)[C@@H](C)NC(=O)[C@H](CC(C)C)NC(=O)[C@H](CN)NC(=O)[C@H](Cc4ccc(-c5ccc(C(=O)O)cc5)cc4)NC(=O)CNC(=O)[C@@H](C)N(C)C(=O)[C@H](CC(=O)O)NC(=O)[C@H]([C@@H](C)c4cccc5ccccc45)NC(=O)[C@@H]4C[C@@H](N)CN4C(=O)CNC(=O)[C@H](Cc4ccc(C(=O)O)cc4)NC(=O)[C@H](Cc4c[nH]c5ccccc45)NC3=O)cn2)CC1
B8: SEQ ID NO: 173 (Example No. 173) (peptide)
peptide: cyclo([TyrEtNAc]W[Phe(4-COOH)]G[Pro(trans-4-NH2)][Trp(βS-Me,4-F)]D[dNMeA]G[Bip(4'-COOH)]WS[dA][TyrEtNAc])
SMILES: CC(=O)NCCOc1ccc(C[C@@H]2NC(=O)[C@H](Cc3ccc(OCCNC(C)=O)cc3)NC(=O)[C@@H](C)NC(=O)[C@H](CO)NC(=O)[C@H](Cc3c[nH]c4ccccc34)NC(=O)[C@H](Cc3ccc(-c4ccc(C(=O)O)cc4)cc3)NC(=O)CNC(=O)[C@@H](C)N(C)C(=O)[C@H](CC(=O)O)NC(=O)[C@H]([C@@H](C)c3c[nH]c4cccc(F)c34)NC(=O)[C@@H]3C[C@@H](N)CN3C(=O)CNC(=O)[C@H](Cc3ccc(C(=O)O)cc3)NC(=O)[C@H](Cc3c[nH]c4ccccc34)NC2=O)cc1
B9: SEQ ID NO: 178 (Example No. 178) (peptide)
peptide: cyclo([3AzaPhe4AcPip]W[Phe(4-COOH)]G[Pro(trans-4-NH2)][1Nal(3S-Me)]D[dNMeA]G[Bip(4'-COOH)]KL[dL][h3Pal(5-CN)])
SMILES: CC(=O)N1CCN(c2ccc(C[C@@H]3NC(=O)[C@H](CCc4cncc(C#N)c4)NC(=O)[C@@H](CC(C)C)NC(=O)[C@H](CC(C)C)NC(=O)[C@H](CCCCN)NC(=O)[C@H](Cc4ccc(-c5ccc(C(=O)O)cc5)cc4)NC(=O)CNC(=O)[C@@H](C)N(C)C(=O)[C@H](CC(=O)O)NC(=O)[C@H]([C@@H](C)c4cccc5ccccc45)NC(=O)[C@@H]4C[C@@H](N)CN4C(=O)CNC(=O)[C@H](Cc4ccc(C(=O)O)cc4)NC(=O)[C@H](Cc4c[nH]c5ccccc45)NC3=O)cn2)CC1
B10: SEQ ID NO: 171 (Example No. 171) (peptide)
peptide: cyclo([TyrEtNAc]W[Phe(4-COOH)]G[Pro(trans-4-NH2)][Trp(βS-Me,4-F)]D[dNMeA]G[Bip(4'-COOH)]WL[dS][hTyr])
SMILES: CC(=O)NCCOc1ccc(C[C@@H]2NC(=O)[C@H](CCc3ccc(O)cc3)NC(=O)[C@@H](CO)NC(=O)[C@H](CC(C)C)NC(=O)[C@H](Cc3c[nH]c4ccccc34)NC(=O)[C@H](Cc3ccc(-c4ccc(C(=O)O)cc4)cc3)NC(=O)CNC(=O)[C@@H](C)N(C)C(=O)[C@H](CC(=O)O)NC(=O)[C@H]([C@@H](C)c3c[nH]c4cccc(F)c34)NC(=O)[C@@H]3C[C@@H](N)CN3C(=O)CNC(=O)[C@H](Cc3ccc(C(=O)O)cc3)NC(=O)[C@H](Cc3c[nH]c4ccccc34)NC2=O)cc1
B11: SEQ ID NO: 174 (Example No. 174) (peptide)
peptide: cyclo([3AzaPhe4AcPip]W[Phe(4-COOH)]G[Pro(trans-4-NH2)][1Nal(3S-Me)]D[dNMeA]G[Bip(4'-COOH)][Dab]L[dA][hCha])
SMILES: CC(=O)N1CCN(c2ccc(C[C@@H]3NC(=O)[C@H](CCC4CCCCC4)NC(=O)[C@@H](C)NC(=O)[C@H](CC(C)C)NC(=O)[C@H](CCN)NC(=O)[C@H](Cc4ccc(-c5ccc(C(=O)O)cc5)cc4)NC(=O)CNC(=O)[C@@H](C)N(C)C(=O)[C@H](CC(=O)O)NC(=O)[C@H]([C@@H](C)c4cccc5ccccc45)NC(=O)[C@@H]4C[C@@H](N)CN4C(=O)CNC(=O)[C@H](Cc4ccc(C(=O)O)cc4)NC(=O)[C@H](Cc4c[nH]c5ccccc45)NC3=O)cn2)CC1
B12: SEQ ID NO: 176 (Example No. 176) (peptide)
peptide: cyclo([3AzaPhe4AcPip]W[Phe(4-COOH)]G[Pro(trans-4-NH2)][1Nal(3S-Me)]D[dNMeA]G[Bip(4'-COOH)][hQ]L[dA][h3Pal(5-CN)])
SMILES: CC(=O)N1CCN(c2ccc(C[C@@H]3NC(=O)[C@H](CCc4cncc(C#N)c4)NC(=O)[C@@H](C)NC(=O)[C@H](CC(C)C)NC(=O)[C@H](CCCC(N)=O)NC(=O)[C@H](Cc4ccc(-c5ccc(C(=O)O)cc5)cc4)NC(=O)CNC(=O)[C@@H](C)N(C)C(=O)[C@H](CC(=O)O)NC(=O)[C@H]([C@@H](C)c4cccc5ccccc45)NC(=O)[C@@H]4C[C@@H](N)CN4C(=O)CNC(=O)[C@H](Cc4ccc(C(=O)O)cc4)NC(=O)[C@H](Cc4c[nH]c5ccccc45)NC3=O)cn2)CC1

Each binder was assayed against Recombinant human IL-1β (BioLegend 579404) (human, UniProt P01584 117-269) (assay: cell-based or functional assay).

Row | MRC5 IC50 [nM] | Binder
1 | 0.013 | B1
2 | 0.021 | B2
3 | 0.015 | B3
4 | 0.013 | B4
5 | 0.246 | B5
6 | 0.017 | B6
7 | 0.016 | B7
8 | 0.959 | B8
9 | 0.019 | B9
10 | 0.145 | B10
11 | 0.015 | B11
12 | 0.017 | B12
